Source: PMC3124622

Substrate: Nc1nc2nc[nH]c2c(=O)[nH]1
Experiment: purified protein, by the assay type
Format: biochemical, E. coli
Conditions: other: wild-type, guanine as substrate, 20 μM tRNA, 37 °C, pH 7.3

B1: E. coli TGT Wild-Type (Escherichia coli K-12) (protein)
chain: MKFELDTTDGRARRGRLVFDRGVVETPCFMPVGTYGTVKGMTPEEVEATGAQIILGNTFHLWLRPGQEIMKLHGDLHDFMQWKGPILTDSGGFQVFSLGDIRKITEQGVHFRNPINGDPIFLDPEKSMEIQYDLGSDIVMIFDECTPYPADWDYAKRSMEMSLRWAKRSRERFDSLGNKNALFGIIQGSVYEDLRDISVKGLVDIGFDGYAVGGLAVGEPKADMHRILEHVCPQIPADKPRYLMGVGKPEDLVEGVRRGIDMFDCVMPTRNARNGHLFVTDGVVKIRNAKYKSDTGPLDPECDCYTCRNYSRAYLHHLDRCNEILGARLNTIHNLRYYQRLMAGLRKAIEEGKLESFVTDFYQRQGREVPPLNVD
B1 was tested, and the Km was 0.35 (0.03) μM and the kcat was 0.00629 s⁻¹.
